Here are results for 2 molecules from publication PMC5079630, “STAT2 Is a Pervasive Cytokine Regulator due to Its Inhibition of STAT1 in Multiple Signaling Pathways” (PLoS Biology, 2016).

In the assay the target is T1, STAT1 N domain (aminoterminal domain), recombinant.
T1 chain: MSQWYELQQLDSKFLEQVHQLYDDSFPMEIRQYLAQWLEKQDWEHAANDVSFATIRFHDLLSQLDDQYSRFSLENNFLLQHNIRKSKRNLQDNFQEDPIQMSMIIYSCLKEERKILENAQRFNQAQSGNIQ
Nature of the assay: AUC; sedimentation equilibrium of purified recombinant N domains, homo- and heterotypic associations (dimer to monomers); STAT1 N domain and mEGFP-tagged STAT2 N domain at final equimolar concentrations of 2.5, 10, and 40 μM. The conditions noted are these: both partners purified.

B1: STAT2 N domain (aminoterminal domain), recombinant, mEGFP-tagged (domain or fragment)
chain: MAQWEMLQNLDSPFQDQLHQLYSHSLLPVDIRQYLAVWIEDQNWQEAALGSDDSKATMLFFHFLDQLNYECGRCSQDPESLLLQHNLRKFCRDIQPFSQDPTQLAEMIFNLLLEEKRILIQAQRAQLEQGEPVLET
modifications: limits not given; N domain taken up to the start of the core region (P52630 region from 138), homologous to STAT1 1-131; mEGFP and Strep-tag omitted / limits not printed (S1 Text/ref. 22); N domain
As for B1, the “fold stronger than STAT1 N domain homodimers” value was no less than 1000 fold.

B2: STAT1 N domain (aminoterminal domain), recombinant (domain or fragment)
chain: MSQWYELQQLDSKFLEQVHQLYDDSFPMEIRQYLAQWLEKQDWEHAANDVSFATIRFHDLLSQLDDQYSRFSLENNFLLQHNIRKSKRNLQDNFQEDPIQMSMIIYSCLKEERKILENAQRFNQAQSGNIQ
modifications: limits not printed (S1 Text/ref. 22); N domain taken up to the start of the conventional STAT1 core fragment (132-713); Strep-tag omitted / limits not printed (S1 Text/ref. 22); N domain taken up to …
For B2, the “fold stronger than STAT2 N domain homodimers” value is roughly 50 fold.
